In PMC10400533, “Exploring the G-quadruplex binding and unwinding activity of the bacterial FeS helicase DinG” one finds Kd data, which are given here for twelve molecules.

Data set [1] has as its target T1, DinG helicase (Escherichia coli, UniProt P27296 1-716).
T1 sequence: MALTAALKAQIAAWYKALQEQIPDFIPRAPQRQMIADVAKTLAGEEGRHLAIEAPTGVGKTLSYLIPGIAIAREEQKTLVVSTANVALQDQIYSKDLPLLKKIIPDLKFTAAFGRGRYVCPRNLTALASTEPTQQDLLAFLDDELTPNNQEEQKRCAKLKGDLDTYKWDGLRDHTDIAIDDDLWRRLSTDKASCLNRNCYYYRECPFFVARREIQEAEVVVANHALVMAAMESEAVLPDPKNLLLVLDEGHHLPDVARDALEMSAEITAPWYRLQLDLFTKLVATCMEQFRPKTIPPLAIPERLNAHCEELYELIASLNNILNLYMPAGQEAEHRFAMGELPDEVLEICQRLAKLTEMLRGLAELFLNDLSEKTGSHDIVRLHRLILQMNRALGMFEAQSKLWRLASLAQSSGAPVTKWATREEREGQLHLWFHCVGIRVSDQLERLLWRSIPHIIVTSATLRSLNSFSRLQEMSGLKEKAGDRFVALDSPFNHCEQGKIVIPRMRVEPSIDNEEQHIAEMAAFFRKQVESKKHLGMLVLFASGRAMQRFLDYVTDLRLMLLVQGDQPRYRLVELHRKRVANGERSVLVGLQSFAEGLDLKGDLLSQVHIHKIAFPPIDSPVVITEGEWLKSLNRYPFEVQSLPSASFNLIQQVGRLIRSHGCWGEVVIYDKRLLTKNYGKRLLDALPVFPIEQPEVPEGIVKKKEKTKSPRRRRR
Kind of data set: SPR; SPR single-cycle kinetics, 25 C, DinG immobilized, DNA 0.062-1 uM; DNA prepared in 10 mM potassium phosphate, 50 mM KCl, pH 7.5; SPR running buffer not in material. The following applies: protein: recombinant, tags: His-tag. (SPR reads the build-up and loss of mass on a sensor chip optically.)

The target in data set [2] is T1, DinG helicase. In words: SPR; Netropsin; SPR single-cycle kinetics, 25 C, DinG immobilized, DNA 0.062-1 uM; DNA prepared in 10 mM potassium phosphate, 50 mM KCl, pH 7.5; SPR running buffer not in material. To be noted: protein: recombinant; tags: His-tag; parallel unimolecular G4.

Broadly, the Kd is the equilibrium constant for the complex coming apart.

As to GGTGGGGGGGCGGGGGAGGCCGGG (structured_DNA) [Zic1], in the data set with DinG helicase [1] (parallel G4), the Kd was determined as 22.8 nM.

As to AGGGTGGGTAGGGTGGGT (structured_DNA) [c-MYC], in the data set with DinG helicase [1] (parallel unimolecular G4), the Kd stood at 30.6 nM.

B1: DNA-fork (D1/D2) (dsDNA)
DNA 1: CTACTACCCCCACCCTCACAACCTTTTTTTTTTTTTT
DNA 2: TTTTTTTTTTTTTTGGTTGTGAGGGTGGGGGTAGTAG
For the molecule B1, the Kd with DinG helicase [1] (fork 1:2, 23 bp duplex, 3' T14 tail on strand 1 and 5' T14 tail on strand 2) was 55.9 nM.

On to GGGGCGGGGTGGGTTGG (structured_DNA) [EC-9], for which the Kd in the data set with DinG helicase [1] (G4) turned out to be 34.9 nM.

Consider GGTGGGGAGGGGTAAGGGG (structured_DNA) [EC-6], for which, in the data set with DinG helicase [1] (G4), the Kd was 36.7 nM.

For the molecule AGGGCGGTGTGGGAATAGGGAA (structured_DNA) [KRAS], in the data set with DinG helicase [1] (parallel unimolecular G4), the Kd stood at 46.4 nM.

Turning to GTGTGTGTGTGTGTGTGTGTGTGTGTGTGT (ssDNA) [G-scramble], the Kd with DinG helicase [1] (no G4 or other secondary structure) was found to be 126 nM.

Consider TAGGGTTAGGGTTAGGGTTAGGG (structured_DNA) [Tel23], for which, in the data set with DinG helicase [1] (hybrid [3+1] unimolecular G4), the Kd came out at 9.4 nM.

With GGGCGCGGGAGGAATTGGGCGGG (structured_DNA) [BCL2], the Kd with DinG helicase [1] (hybrid [3+1] unimolecular G4) is 21 nM.

In the case of GGGTGGGTGGGTGGGT (structured_DNA) [T30695], the equilibrium dissociation constant (Kd) with DinG helicase [1] (dimeric parallel G4 of 2 strands) was 163 nM.

For GGGGGAGGAGGACGGGGG (structured_DNA) [EC-7], the Kd in the data set with DinG helicase [1] (G4) came out at 56.9 nM.

In the case of AGGGAGGGCGCTGGGAGGAGGG (structured_DNA) [c-KIT1], the Kd in the data set with DinG helicase [2] was 31.5 nM; in the data set with DinG helicase [1] (parallel unimolecular G4) it was 28.9 nM.
